Test results from patent US20240158497A1 (published 2024).

What was measured:
[1] = biological target: T1, human GP130 extracellular domain expressed with a C-terminal mouse IgG2a Fc tag (hGP130-mFc) (human); experiment: SPR Biacore, mAb captured via anti-hFc, 25 C
T1 construct: also called dimeric human GP130
T1 chain: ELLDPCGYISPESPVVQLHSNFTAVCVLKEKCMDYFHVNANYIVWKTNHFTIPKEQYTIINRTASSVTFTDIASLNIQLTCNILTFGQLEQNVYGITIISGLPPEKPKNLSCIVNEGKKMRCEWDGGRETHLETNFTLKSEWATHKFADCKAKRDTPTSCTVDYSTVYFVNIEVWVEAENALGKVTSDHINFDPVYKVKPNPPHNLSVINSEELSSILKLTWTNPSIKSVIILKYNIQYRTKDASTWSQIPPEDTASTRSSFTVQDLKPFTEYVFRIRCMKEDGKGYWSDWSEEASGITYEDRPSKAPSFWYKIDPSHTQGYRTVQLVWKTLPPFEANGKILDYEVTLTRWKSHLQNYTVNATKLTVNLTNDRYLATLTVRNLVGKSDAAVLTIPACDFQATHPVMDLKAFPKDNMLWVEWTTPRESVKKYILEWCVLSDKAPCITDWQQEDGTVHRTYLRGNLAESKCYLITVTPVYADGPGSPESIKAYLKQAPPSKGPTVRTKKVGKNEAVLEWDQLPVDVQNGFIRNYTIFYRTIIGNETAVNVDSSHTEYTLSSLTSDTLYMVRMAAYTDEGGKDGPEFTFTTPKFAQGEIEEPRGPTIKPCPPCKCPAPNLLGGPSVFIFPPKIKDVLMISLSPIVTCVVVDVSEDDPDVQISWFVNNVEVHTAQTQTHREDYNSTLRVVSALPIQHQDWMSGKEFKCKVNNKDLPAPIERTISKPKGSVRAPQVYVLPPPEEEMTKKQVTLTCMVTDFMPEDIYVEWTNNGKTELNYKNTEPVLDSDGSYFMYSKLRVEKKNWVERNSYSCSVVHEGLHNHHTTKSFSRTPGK
Protocol: (§1) Equilibrium dissociation constant (KD) for different GP130 reagents binding to purified anti-GP130 monoclonal antibodies were determined using a real-time surface plasmon resonance based Biacore 4000 biosensor. All binding studies were performed in 10 mM HEPES, 150 mM NaCl, 3 mM EDTA, and 0.05% v/v Surfactant Tween-20, pH 7.4 (HBS-ET) running buffer at 25° C. and 37° C. The Biacore sensor surface was first derivatized by amine coupling with a monoclonal mouse anti-human Fc antibody (GE, #BR-1008-39) to capture anti-GP130 monoclonal antibodies. […] Reagents tagged with “mmH” are monomeric, whereas reagents tagged with “mFc” are dimeric. Thus, for example, “hGP130-mmH” is also referred to as “monomeric human GP130,” and “hGP130-mFc” is also referred to as “dimeric human GP130.”
(§2) The association rate (k a) and dissociation rate (kd) were determined by fitting the real-time binding sensorgrams to a 1:1 binding model with mass transport limitation using Scrubber 2.0c curve-fitting software. Binding dissociation equilibrium constant (KD) and dissociative half-life (t ½) were calculated from the kinetic rates as: […]

[2] = biological target: T2, mouse GP130 extracellular domain expressed with a C-terminal myc-myc-hexahistidine tag (mGP130-mmH) (mouse, UniProt Q00560 23-617); experiment: SPR Biacore, mAb captured via anti-hFc, 25 C
T2 construct: Monomeric; the entry includes the myc-myc-His tag
T2 sequence (Q00560 other isoform, or with tags, fused parts or gaps): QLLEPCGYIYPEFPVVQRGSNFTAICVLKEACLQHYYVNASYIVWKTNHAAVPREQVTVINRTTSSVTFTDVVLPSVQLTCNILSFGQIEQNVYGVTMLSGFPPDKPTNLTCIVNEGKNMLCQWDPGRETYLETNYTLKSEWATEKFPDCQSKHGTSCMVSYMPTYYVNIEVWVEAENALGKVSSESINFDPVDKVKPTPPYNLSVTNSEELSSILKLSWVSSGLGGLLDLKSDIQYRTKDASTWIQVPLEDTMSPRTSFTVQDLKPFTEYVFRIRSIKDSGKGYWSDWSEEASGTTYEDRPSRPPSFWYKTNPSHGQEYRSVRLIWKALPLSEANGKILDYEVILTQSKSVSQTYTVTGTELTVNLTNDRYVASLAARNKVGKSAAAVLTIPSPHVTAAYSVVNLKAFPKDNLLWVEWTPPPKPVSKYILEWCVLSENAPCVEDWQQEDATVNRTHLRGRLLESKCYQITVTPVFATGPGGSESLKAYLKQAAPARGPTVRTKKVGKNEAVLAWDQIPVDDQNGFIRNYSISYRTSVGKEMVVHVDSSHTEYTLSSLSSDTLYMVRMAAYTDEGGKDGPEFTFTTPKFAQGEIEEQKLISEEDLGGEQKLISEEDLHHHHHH
Protocol: as §1, §2

[3] = biological target: T3, rat GP130 extracellular domain expressed with a C-terminal myc-myc-hexahistidine tag (rGP130-mmH) (rat, UniProt P40190 23-618); experiment: SPR Biacore, mAb captured via anti-hFc, 25 C
T3 construct: Monomeric; the entry includes the myc-myc-His tag
T3 sequence (P40190 other isoform, or with tags, fused parts or gaps): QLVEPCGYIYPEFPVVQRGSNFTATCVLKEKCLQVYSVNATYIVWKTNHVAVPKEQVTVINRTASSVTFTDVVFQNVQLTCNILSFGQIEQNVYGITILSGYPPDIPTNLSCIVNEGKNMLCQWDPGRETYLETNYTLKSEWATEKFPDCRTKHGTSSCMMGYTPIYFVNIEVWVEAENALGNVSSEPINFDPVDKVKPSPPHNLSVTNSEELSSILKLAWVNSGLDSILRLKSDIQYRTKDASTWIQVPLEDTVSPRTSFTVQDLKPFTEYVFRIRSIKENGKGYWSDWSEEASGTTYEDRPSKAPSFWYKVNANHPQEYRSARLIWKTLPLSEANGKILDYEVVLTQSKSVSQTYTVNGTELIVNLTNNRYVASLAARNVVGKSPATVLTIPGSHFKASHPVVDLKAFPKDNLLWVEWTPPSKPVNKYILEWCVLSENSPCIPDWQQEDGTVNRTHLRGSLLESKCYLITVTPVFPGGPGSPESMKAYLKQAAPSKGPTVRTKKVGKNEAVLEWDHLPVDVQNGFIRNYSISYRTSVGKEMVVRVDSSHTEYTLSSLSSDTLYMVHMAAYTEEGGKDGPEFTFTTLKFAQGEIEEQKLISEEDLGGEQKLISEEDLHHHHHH
Protocol: as §1, §2

[4] = biological target: T1, human GP130 extracellular domain …; experiment: SPR Biacore, mAb captured via anti-hFc, 37 C
Protocol: as §1, §2

[5] = biological target: T2, mouse GP130 extracellular domain …; experiment: SPR Biacore, mAb captured via anti-hFc, 37 C
Protocol: as §1, §2

[6] = biological target: T3, rat GP130 extracellular domain …; experiment: SPR Biacore, mAb captured via anti-hFc, 37 C
Protocol: as §1, §2

Row | Binder | 100 nM Ag Bound (RU) [1] [RU] | Kd [1] [nM] | koff [1] [s⁻¹] | kon [1] [M⁻¹ s⁻¹] | t½ [1] [min] | 100 nM Ag Bound (RU) [2] [RU] | 100 nM Ag Bound (RU) [3] [RU] | binding result [3] | 100 nM Ag Bound (RU) [4] [RU] | Kd [4] [nM] | koff [4] [s⁻¹] | kon [4] [M⁻¹ s⁻¹] | t½ [4] [min] | 100 nM Ag Bound (RU) [5] [RU] | 100 nM Ag Bound (RU) [6] [RU] | binding result [5] | binding result [2]
1 | MAb16637 (antibody, V domains shown, captured through anti-human Fc) VH: QVQLVQSGAEVKKPGASVKVSCKASGYTFTSLGISWVRQAPGQGLEWMGWISAYSGNRDYAQKFQGRVTMTTDTSTSTAYMELRSLRSDDTAVYYCARSLRFDYWGQGTLVTVSS VL: not shown | 189 | 0.647 | 0.00015 | 232000 | 77 | 1 | 0 | no binding (tested: 100 nM) | 246 | 0.65 | 0.000323 | 496000 | 36 | -1 | 0 | – | –
2 | MAb16666 (antibody, V domains shown, captured through anti-human Fc) VH: EVQLVESGGGLVQSGGSLRLSCAASGFTFSRYEMNWVRQAPGKGLEWVAYISNTGTTRDYSDSVKGRFTISRDNAKNSLYLQMSSLRVEDTAVYYCVREKFSGTSDWFDPWGQGTLVTVSS VL: not shown | 253 | 0.12 | 0.000137 | 1.14e+06 | 85 | 1 | 1 | no binding (tested: 100 nM) | 285 | 0.298 | 0.00036 | 1.21e+06 | 32 | 0 | 1 | no binding (tested: 100 nM) | –
3 | MAb16659 (antibody, V domains shown, captured through anti-human Fc) VH: QVQLVQSGPEVKKPGSSVKVSCKASGGTIDRNEITWVRQAPGQGLEWMGVIIPILGEAHYERKFQGRLTITMDESTSTAYMELSNLRSEDTAVYYCARERAARGYLDYWGQGTLVTVSS VL: not shown | 186 | 0.0366 | 6.28e-05 | 1.72e+06 | 184 | 1 | 2 | no binding (tested: 100 nM) | 227 | 0.0249 | 4.76e-05 | 1.91e+06 | 243 | 1 | 1 | no binding (tested: 100 nM) | –
4 | MAb16669 (antibody, V domains shown, captured through anti-human Fc) VH: EVQLVESGGGLVQPGGSLRLSCAASGFTFSSYAMNWVRQAPGKGLEWVSAISGSGDSTYYTDSVKGRFTISRDNSKNTLYLQMNTLRAEDTAVYYCAKEEIVMLVGATPGWFDPWGQGTLVTVSS VL: not shown | 40 | 8.21 | 0.000241 | 29300 | 48 | 0 | -2 | – | 59 | 5.85 | 0.00038 | 65100 | 30 | -1 | -2 | – | –
5 | MAb16656 (antibody, V domains shown, captured through anti-human Fc) VH: EVQLVESGGGLVQPGRSLRLSCAASGFTLDDFAMHWVRQAPGKGLEWVSGISWNSGNIGYADSVKGRFTISRDNARNSLYLQMNSLRAEDTALYYCTSGYYLYYAMDVWGQGTTVTVSS VL: not shown | 98 | 1.68 | 0.000132 | 78100 | 88 | 0 | -1 | – | 123 | 1.7 | 0.000297 | 175000 | 39 | 0 | 0 | no binding (tested: 100 nM) | –
6 | MAb16636 (antibody, V domains shown, captured through anti-human Fc) VH: QLQLQESGPGLVKPSETLSLICTVSGGSISSNNYYWGWIRQPPGKGLEWIGNLYGSGSTYYNPSLKSRVTISVDTSKNQFSLKLSFVTAADTAVYHCARWDTNGGAFDIWGQGTMVTVSS VL: not shown | 91 | 1.92 | 0.000113 | 58800 | 102 | 0 | 1 | no binding (tested: 100 nM) | 136 | 1.2 | 0.000167 | 139000 | 69 | 0 | 0 | – | no binding (tested: 100 nM)
7 | MAb16662 (antibody, V domains shown, captured through anti-human Fc) VH: EVQLVESGGGLVQPGGSLRLSCTASGFTFSNYAIFWVRQAPGKGLEYVSGISNNGVTKYYADSVRDRFTISRDNSRNTVSIQMDSLRTEDMAVYYCARENWGSDDGFDIWGQGTMVTVSS VL: not shown | 90 | 0.772 | 0.000479 | 620000 | 24 | -1 | -1 | – | 114 | 4.15 | 0.00265 | 639000 | 4 | 1 | 1 | – | –
8 | MAb16665 (antibody, V domains shown, captured through anti-human Fc) VH: QVQLVESGGGVVQPGRSLRLACAASGFTFRSYGMHWVRQAPGKGLEWVAVIWYDGSNKYYTDSVKGRFTISRDNSKNTLYLQMNSLRAEDTAMYYCAIDKWATVTTYLFDYWGQGTLVTVSS VL: not shown | 158 | 2.72 | 0.00109 | 399000 | 11 | 0 | 0 | – | 172 | 3.92 | 0.00256 | 653000 | 5 | -1 | -1 | – | –
9 | MAb16673 (antibody, V domains shown, captured through anti-human Fc) VH: EVQLVQSGAEVKKPGESLKISCKGSGYSFTSYWIDWVRQMPGKGLEWMGIIYPDDSDTRYSPSFQGQVTMSVDKSISTAYLQWSSLKASDTAIYYCARHERGIVEAGTDYYYYYGMDVWGQGTTVTVSS VL: not shown | 169 | 0.173 | 9.66e-05 | 560000 | 120 | 0 | 0 | no binding (tested: 100 nM) | 199 | 0.457 | 0.000313 | 684000 | 37 | 1 | 2 | no binding (tested: 100 nM) | –
10 | MAb16664 (antibody, V domains shown, captured through anti-human Fc) VH: QVQLVQSGTEVKKPGSSVKVSCKASGGTFSTYPINWVRQAPGQGLEWMGGIIPIFGTASYAQKFQGRVAITTDESTSTAYMELNSLRSEDTAVYYCARERPNWGSNDYWGQGTLVTVSS VL: not shown | 26 | 0.116 | 0.000354 | 3.05e+06 | 33 | 0 | 0 | no binding (tested: 100 nM) | 37 | 0.0815 | 0.000109 | 1.33e+06 | 106 | 1 | 0 | no binding (tested: 100 nM) | –
